Laboratory results reported in PMC13335422 (The Journal of Experimental Medicine, 2026).
Changes are numbered by the printed parent chain.

T1: Recombinant Bet v1 (major birch pollen allergen Bet v1) (birch, biotin (biotinylated rBet v1 in the flow cytometry and in the IgE-blocking ELISA; site not stated))
T1 construct: Bet v1, major allergen of birch pollen (PR-10 family); codon-optimized synthetic gene in pET29b; PDB 4A81 was the Bet v1 model fitted into the cryo-EM map; One molecule for the plain and the biotinylated protein: same construct; also called rBet v1; biotinylated rBet v1
T1 chain: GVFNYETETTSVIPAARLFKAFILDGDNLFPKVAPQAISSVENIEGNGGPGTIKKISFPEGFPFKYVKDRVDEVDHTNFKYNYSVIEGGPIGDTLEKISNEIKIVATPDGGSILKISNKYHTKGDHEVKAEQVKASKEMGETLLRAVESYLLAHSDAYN

B1: Fab08 (Fab of mAb 8) (Fab, V domains shown)
VH: EVQLVQSGAEVKKPGDSLKISCKGSGYSFSNFWIGWVRQMPGKGLELMGIVYPGDSDTKYRPSFLGQVTISADKSIATAFLQWSRLTASDTAIYYCARLGATYAGADFWGQGTLVTVSS
VL: DIQMTQSPSSLSASVGDRVTITCRASQTIVTYLNWYQQKPGKAPKLLIYAASNLQSGVPSRFSGSGSGTDFTLTISSLQPEDFAIYYCQQSYAAFGEGTKVEIK
notes: heavy variable domain as the heavy chain of m3 (mAb 8, IGHV5-51); constant part of the Fab heavy chain; as the light chain of m3 (mAb 8, IGKV1-39); The production of the Fabs is not described
B2: CAlleR 8 (anti-Bet v1 chimeric allergen receptor with the scFv of mAb 8, CD28 and CD3ζ domains) (other)
VH: B1 VH
VL: B1 VL
notes: scFv derived from mAb 8 (variable domains as in m3; GenBank within PZ143166-PZ143179); CD28 hinge, transmembrane and intracellular (costimulatory) domains; CD3ζ intracellular signaling domain; Second-generation CAR design in pCDH-EF1-FHC (Addgene 64874), as in Muller et al., 2021a; The murine CAlleR 8 (mouse CD28 and CD3ζ domains) is another construct and has no row; source: primary human T …
B3: CAlleR 5 (anti-Bet v1 chimeric allergen receptor with the scFv of mAb 5, CD28 and CD3ζ domains) (other)
VH: EVQLVQSGAEVKKPGESLNISCNGSGYNFTKYWIAWVRQMPGKGLEWMGIIYPGDSDTKYRPSFQGQVTISADKSITTAYLQWSRLKVSDTAIYYCARLGATYGGADYWGQGTLVTVSS
VL: B1 VL with R24Q, T28S, T31N, N53S, I85T, K104T
notes: scFv derived from mAb 5 (variable domains as in m2; GenBank within PZ143166-PZ143179); CD28 hinge, transmembrane and intracellular (costimulatory) domains; CD3ζ intracellular signaling domain; Second-generation CAR design in pCDH-EF1-FHC (Addgene 64874), as in Muller et al., 2021a; source: primary human T cells, lentivirally transduced, on cells
B4: CAlleR 11 (anti-Bet v1 chimeric allergen receptor with the scFv of mAb 11, CD28 and CD3ζ domains) (other)
VH: EVELLESGGGLVQPGGSLRLSCVGSGFTFPSYAMTWVRQAPGKGLEWVSAISGGGENSGGSTYYADSVKGRFTISRDNSKNTLFLQMSSLRAEDTAVYYCTREPVSWAFGSGTEYFDYWGQGTLVTVSS
VL: QSVLTQPPSASGTPGQRVTISCSGSSSNIGSNTVTWYHQLPGTAPKLLIYNNHRRPSGVPDRFSGSKSGTAASLGISGLQSEDEAAYYCATWDDSLKGWVFGGGTKLTVL
notes: scFv derived from mAb 11 (variable domains as in m5; GenBank within PZ143166-PZ143179); CD28 hinge, transmembrane and intracellular (costimulatory) domains; CD3ζ intracellular signaling domain; Second-generation CAR design in pCDH-EF1-FHC (Addgene 64874), as in Muller et al., 2021a; source: primary human T cells, lentivirally transduced, on cells
B5: Fab10 (Fab of mAb 10) (Fab, V domains shown)
VH: EVQLVESGGGLVQPGGSLRLSCTASGFTFSSYMTHWVRQAPGKGLEWVSHISGDGTNTTYADTVKGRFFTSRDNVKNTLFLQMDSLRAEDTAVYFCARGSWYTTGWHRNYYFGMDVWGQGTTVTVSS
VL: DIVMTQSPLSLPVTPGEPASISCRSSQSLLHSNGYNYLDWYLQKPGRSPQLLIYLGSHRASGVPDRFSGDGSGTDFTLKISRVEAEDVGVYYCMQVLQTPSFGGGTKVEIK
notes: heavy variable domain as the heavy chain of m4 (mAb 10); constant part of the Fab heavy chain; as the light chain of m4 (mAb 10); The production of the Fabs is not described
B6: CAlleR 10 (anti-Bet v1 chimeric allergen receptor with the scFv of mAb 10, CD28 and CD3ζ domains) (other)
VH: B5 VH
VL: B5 VL
notes: scFv derived from mAb 10 (variable domains as in m4; GenBank within PZ143166-PZ143179); CD28 hinge, transmembrane and intracellular (costimulatory) domains; CD3ζ intracellular signaling domain; Second-generation CAR design in pCDH-EF1-FHC (Addgene 64874), as in Muller et al., 2021a; source: primary human T cells, lentivirally transduced, on cells

Legend:
[1] = target: Recombinant Bet v1 (major birch pollen allergen Bet v1) (birch) (UniProt P15494); test: ELISA
[2] = target: Recombinant Bet v1 (major birch pollen allergen Bet v1) (birch) (UniProt P15494); test: BLI
[3] = target: T1, Recombinant Bet v1 (major birch pollen …); test: cryo-EM structure; Bet v1 complexed with threefold molar excess of Fab08 and Fab10; reconstruction at 4.8 Å, Cα positioning; conditions: both partners purified
[4] = target: T1, Recombinant Bet v1 (major birch pollen …); test: flow cytometry on cells; transduced primary human T cells stained with biotinylated rBet v1 (1 μg/ml) and streptavidin-PE, 30 min at 4°C; mCherry reporter; conditions: one partner purified

Row | Molecule | EC50 [1] [ng/mL] | binding result [4] | also measured
1 | mAb 11 (human anti-Bet v1 IgG monoclonal antibody) (from UniProt P01857) | 4.26 | – | Kd [2]: 3.61 nM
2 | mAb 10 (human anti-Bet v1 IgG monoclonal antibody) (from UniProt P01857) | 7.26 | – | –
3 | eB20 (human anti-Bet v1 antibody from an IgE clone) (from UniProt P01857) | 8.89 | – | –
4 | B1 | – | – | binding result [3]: binds
5 | B2 | – | binds | –
6 | B3 | – | binds | –
7 | B4 | – | binds | –
8 | B5 | – | – | binding result [3]: binds
9 | B6 | – | binds | –
